Earlier results on two substances are cited in article PMC8138766.

For orientation: Kd means the constant that tells how readily two partners part at equilibrium.

Data set [1] deals with V-ATPase subunit C (Saccharomyces cerevisiae) (UniProt P31412).
For data set [2] the target is unchanged. The source holds these as a separate data set.

Where two headings read alike, the source gives them in different places.

Sequence of V-ATPase subunit C (Saccharomyces cerevisiae) (P31412 2-392): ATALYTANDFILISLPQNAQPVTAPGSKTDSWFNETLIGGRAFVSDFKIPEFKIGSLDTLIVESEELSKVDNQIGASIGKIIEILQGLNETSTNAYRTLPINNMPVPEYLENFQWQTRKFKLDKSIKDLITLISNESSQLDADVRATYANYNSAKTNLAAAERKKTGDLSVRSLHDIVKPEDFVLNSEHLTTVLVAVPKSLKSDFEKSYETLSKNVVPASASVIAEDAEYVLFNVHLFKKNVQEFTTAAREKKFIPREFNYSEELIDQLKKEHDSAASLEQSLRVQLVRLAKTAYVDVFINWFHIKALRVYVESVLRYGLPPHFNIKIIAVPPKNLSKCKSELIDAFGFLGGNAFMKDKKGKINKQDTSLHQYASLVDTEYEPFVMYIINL
Sequence of EG stalk (P22203 2-233): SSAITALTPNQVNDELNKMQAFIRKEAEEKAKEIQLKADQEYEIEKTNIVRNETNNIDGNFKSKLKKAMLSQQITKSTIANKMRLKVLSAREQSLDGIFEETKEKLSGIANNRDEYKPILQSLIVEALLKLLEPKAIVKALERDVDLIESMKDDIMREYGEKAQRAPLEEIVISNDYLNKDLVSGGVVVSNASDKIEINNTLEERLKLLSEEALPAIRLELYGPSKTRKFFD
Sequence of EG stalk (P48836 2-114, further chain): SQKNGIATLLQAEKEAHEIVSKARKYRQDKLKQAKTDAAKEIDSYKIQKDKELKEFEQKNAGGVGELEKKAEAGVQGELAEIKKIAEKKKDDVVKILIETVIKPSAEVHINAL
Sequence of V1 (P17255 2-1071): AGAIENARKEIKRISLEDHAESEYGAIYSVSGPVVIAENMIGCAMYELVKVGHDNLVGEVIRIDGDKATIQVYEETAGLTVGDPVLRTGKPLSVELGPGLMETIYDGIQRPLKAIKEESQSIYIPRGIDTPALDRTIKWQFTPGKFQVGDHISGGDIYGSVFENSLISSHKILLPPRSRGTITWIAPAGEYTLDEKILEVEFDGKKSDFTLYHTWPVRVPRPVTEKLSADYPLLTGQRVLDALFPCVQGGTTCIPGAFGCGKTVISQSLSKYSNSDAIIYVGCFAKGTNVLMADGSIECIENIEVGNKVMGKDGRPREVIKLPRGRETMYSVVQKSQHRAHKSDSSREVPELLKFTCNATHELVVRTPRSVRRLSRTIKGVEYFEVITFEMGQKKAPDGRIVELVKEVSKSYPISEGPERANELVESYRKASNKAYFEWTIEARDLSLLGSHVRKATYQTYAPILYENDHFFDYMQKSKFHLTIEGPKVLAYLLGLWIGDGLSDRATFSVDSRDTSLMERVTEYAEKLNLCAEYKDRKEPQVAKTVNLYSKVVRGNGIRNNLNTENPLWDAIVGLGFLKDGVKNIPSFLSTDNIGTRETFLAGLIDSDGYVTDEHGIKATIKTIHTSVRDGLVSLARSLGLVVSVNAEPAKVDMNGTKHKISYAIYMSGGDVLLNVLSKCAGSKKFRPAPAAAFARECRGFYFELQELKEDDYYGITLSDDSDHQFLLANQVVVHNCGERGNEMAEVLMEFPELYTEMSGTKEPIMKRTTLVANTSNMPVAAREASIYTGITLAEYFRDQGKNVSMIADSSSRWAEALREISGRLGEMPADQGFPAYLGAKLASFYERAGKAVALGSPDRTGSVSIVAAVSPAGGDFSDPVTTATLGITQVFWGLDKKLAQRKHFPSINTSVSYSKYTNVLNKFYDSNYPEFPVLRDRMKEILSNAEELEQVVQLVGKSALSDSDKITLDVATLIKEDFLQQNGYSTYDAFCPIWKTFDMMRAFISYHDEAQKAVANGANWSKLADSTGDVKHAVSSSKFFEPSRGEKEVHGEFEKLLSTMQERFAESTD
Sequence of V1 (P16140 2-517, further chain): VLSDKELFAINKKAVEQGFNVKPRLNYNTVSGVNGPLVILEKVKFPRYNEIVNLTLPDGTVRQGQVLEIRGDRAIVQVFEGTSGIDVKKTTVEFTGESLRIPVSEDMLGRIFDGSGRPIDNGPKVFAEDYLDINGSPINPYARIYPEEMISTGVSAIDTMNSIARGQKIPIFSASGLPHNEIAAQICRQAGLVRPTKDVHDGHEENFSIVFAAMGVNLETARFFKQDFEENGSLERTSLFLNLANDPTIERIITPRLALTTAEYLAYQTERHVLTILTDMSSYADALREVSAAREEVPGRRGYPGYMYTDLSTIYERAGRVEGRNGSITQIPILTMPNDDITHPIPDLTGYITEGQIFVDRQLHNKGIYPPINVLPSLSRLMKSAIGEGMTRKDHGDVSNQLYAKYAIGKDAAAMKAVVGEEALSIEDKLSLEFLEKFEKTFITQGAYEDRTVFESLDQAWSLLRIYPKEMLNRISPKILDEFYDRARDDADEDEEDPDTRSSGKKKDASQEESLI

Regarding EG stalk (from UniProt P22203), the Kd in data set [1] is 42 nM.

In the case of V1 (from UniProt P17255), the Kd in data set [2] is 0.7 nM.
